Values quoted from earlier work in publication PMC8727504.

Molecular target: sMMOH (Methylosinus trichosporium) (UniProt P27353)
Test: competition

Kd: < 100 nM
Substance: MMOB (from UniProt P27356)
